Data: PMC4183148
Where “and” joins values, the source holds several entries; their conditions need not be identical. Equal values may be shown once. Read-outs that look alike come from different tables or passages of the source.

Columns and labels:
[1] = target: PKM2 (pyruvate kinase, M2 isoform), endogenous (human (endogenous in HEK293T, H1299, U87)) (UniProt P14618); assay: SEC
[2] = target: PKM2 (pyruvate kinase, M2 isoform), endogenous (human (endogenous in HEK293T, H1299, U87)) (UniProt P14618); assay: SEC; remark: listed apart in the source

PKM2 (pyruvate kinase, M2 isoform), endogenous, P14618 1-531 (natural protein; other documents disagree on this pair), sequence (P14618 whole entry, canonical isoform): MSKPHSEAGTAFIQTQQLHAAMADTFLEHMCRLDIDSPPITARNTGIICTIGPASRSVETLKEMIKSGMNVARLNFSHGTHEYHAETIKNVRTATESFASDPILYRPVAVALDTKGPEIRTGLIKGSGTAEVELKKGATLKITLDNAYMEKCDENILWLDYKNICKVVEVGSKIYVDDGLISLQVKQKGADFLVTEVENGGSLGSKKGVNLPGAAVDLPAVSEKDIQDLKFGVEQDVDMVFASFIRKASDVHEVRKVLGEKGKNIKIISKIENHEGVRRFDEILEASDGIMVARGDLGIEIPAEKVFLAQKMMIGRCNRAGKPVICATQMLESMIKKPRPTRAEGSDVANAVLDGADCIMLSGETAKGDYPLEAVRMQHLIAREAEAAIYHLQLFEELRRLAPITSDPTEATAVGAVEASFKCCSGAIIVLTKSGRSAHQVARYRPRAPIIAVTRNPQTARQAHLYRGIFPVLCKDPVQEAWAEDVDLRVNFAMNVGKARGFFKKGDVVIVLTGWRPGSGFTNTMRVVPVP

percent dimeric form [1]: 78.9% | percent tetrameric form [1]: 20.1% | percent dimeric form [2]: 66.5% and 56% | percent tetrameric form [2]: 26.2% and 43.8%
Substance: PKM2 (pyruvate kinase, M2 isoform), endogenous, P14618 1-531 (natural protein; other documents disagree on this pair)
